Source: US20260070986A1

Assays:
[1] = biological target: CD16A endogenously expressed on primary human NK cells (human) (UniProt P08637); assay: flow cytometry on primary human NK cells, biotinylated antibody, 37 C, without IgG, mean of 4
[2] = biological target: CD16A endogenously expressed on primary human NK cells (human) (UniProt P08637); assay: flow cytometry on primary human NK cells, 37 °C, biotinylated antibody, streptavidin-FITC, without polyclonal human IgG
[3] = biological target: human CD16A-mFc (158F) (sAg_107) (human) (UniProt P08637); assay: ELISA, plate coated with human CD16A-mFc (158F), one-site fit, mean of 3
Sequence of human CD16A-mFc (158F) (sAg_107) (human) (P08637 17-208 limits assumed): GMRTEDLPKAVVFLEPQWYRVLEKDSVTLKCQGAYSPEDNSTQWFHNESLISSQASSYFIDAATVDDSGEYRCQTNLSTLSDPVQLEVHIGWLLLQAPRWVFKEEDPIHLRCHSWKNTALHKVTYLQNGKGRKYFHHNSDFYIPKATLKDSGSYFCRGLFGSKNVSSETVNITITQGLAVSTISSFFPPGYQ

[4] = biological target: human CD16A-mFc (158F) (sAg_107) (human) (UniProt P08637); assay: ELISA on coated human CD16A-mFc (158F), anti-mouse HRP detection
[5] = biological target: CD16A endogenously expressed on primary human NK cells (human) (UniProt P08637); assay: flow cytometry on primary human NK cells, biotinylated antibody, 37 C, with 10 mg/mL polyclonal human IgG as competitor, mean of 4
[6] = biological target: human CD16A-mFc (158V) (sAg_149) (human) (UniProt P08637); assay: ELISA on coated human CD16A-mFc (158V), anti-mouse HRP detection
[7] = biological target: recombinant human FcγRIIA (CD32A), biotinylated (human) (UniProt P12318); assay: SPR (Biacore T200), 37 C, biotin-captured receptor, steady-state affinity
Sequence of recombinant human FcγRIIA (CD32A), biotinylated (human) (P12318 34-218 limits assumed): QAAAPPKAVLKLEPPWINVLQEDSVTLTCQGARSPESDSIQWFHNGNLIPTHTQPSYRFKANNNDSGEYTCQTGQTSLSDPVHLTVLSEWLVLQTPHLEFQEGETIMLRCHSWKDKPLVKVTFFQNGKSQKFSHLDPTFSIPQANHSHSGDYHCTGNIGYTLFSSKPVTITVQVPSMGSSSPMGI

[8] = biological target: recombinant murine FcγRIIB (CD32), biotinylated (murine) (UniProt P08101); assay: as above
Sequence of recombinant murine FcγRIIB (CD32), biotinylated (murine) (P08101 30-207 limits assumed): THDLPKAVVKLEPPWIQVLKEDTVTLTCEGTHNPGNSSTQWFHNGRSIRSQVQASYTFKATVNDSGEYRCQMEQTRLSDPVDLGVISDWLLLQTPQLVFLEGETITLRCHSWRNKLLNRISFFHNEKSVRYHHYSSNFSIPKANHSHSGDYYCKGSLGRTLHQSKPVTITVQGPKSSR

[9] = biological target: recombinant cynomolgus FcγRIIA (CD32A), biotinylated (cynomolgus); assay: SPR (Biacore), 37 °C, biotin-captured cynomolgus CD32A as ligand, steady-state affinity fit
[10] = biological target: recombinant human FcγRIIC (CD32C), biotinylated (human) (UniProt P31995); assay: SPR (Biacore), 37 °C, biotin-captured human CD32C as ligand, steady-state affinity fit
Sequence of recombinant human FcγRIIC (CD32C), biotinylated (human) (P31995 43-223 limits assumed): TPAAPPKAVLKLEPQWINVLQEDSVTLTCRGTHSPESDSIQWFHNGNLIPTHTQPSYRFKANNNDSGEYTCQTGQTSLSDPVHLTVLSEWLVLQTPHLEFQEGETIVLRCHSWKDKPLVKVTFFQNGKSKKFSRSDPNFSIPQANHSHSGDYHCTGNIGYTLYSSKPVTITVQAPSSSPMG

[11] = biological target: recombinant cynomolgus FcγRIIB/C (CD32B/C), biotinylated (cynomolgus); assay: SPR (Biacore), 37 °C, biotin-captured cynomolgus CD32B/C as ligand, steady-state affinity fit
[12] = biological target: recombinant human FcγRIIB (CD32B), biotinylated (human) (UniProt P31994); assay: SPR (Biacore), 37 °C, biotin-captured human CD32B as ligand, steady-state affinity fit
Sequence of recombinant human FcγRIIB (CD32B), biotinylated (human) (P31994 43-217 limits assumed): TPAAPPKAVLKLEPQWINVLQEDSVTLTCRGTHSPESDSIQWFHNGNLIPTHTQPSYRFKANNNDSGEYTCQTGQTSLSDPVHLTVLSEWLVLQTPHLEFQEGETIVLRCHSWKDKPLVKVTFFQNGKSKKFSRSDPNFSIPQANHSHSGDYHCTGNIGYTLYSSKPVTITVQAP

Sequence of control antibody MOR208 (anti-CD19 human IgG1 Fc enhanced) (HC): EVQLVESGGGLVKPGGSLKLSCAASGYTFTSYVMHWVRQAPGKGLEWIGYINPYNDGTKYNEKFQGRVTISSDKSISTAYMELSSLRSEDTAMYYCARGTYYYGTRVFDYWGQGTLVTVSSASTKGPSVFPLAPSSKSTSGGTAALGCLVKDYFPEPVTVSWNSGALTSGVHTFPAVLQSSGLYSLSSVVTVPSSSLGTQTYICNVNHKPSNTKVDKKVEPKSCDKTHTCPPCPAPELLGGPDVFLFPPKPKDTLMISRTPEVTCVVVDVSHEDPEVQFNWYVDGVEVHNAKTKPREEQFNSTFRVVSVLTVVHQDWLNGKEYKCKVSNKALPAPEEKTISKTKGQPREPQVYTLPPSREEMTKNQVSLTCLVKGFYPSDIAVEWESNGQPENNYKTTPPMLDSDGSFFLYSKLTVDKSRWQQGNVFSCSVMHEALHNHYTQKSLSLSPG
Sequence of control antibody MOR208 (anti-CD19 human IgG1 Fc enhanced) (LC): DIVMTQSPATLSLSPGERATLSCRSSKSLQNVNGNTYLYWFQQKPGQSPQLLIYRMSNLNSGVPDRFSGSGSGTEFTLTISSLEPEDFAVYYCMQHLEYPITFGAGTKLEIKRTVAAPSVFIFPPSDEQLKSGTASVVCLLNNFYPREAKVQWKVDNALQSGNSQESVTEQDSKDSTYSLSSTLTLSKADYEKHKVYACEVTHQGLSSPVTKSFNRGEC
Sequence of CD16A endogenously expressed on primary human NK cells (human) (P08637 17-254 limits assumed): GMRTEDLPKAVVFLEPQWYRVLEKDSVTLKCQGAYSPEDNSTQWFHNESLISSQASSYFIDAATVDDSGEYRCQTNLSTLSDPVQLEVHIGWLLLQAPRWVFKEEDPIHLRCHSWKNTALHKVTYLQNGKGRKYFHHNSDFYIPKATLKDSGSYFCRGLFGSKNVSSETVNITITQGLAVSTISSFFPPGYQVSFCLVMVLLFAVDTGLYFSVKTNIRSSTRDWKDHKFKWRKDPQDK

| Substance | Kd [1] [nM] | EC50 (read off the curve) [2] [nM] | Kd [3] [nM] | EC50 (read off the curve) [4] [nM] | Kd [5] [nM] | EC50 (read off the curve) [6] [nM] | Kd [7] [nM] | Kd [8] [nM] | Kd [9] [nM] | Kd [10] [nM] | Kd [11] [nM] | Kd [12] [nM] |
| --- | --- | --- | --- | --- | --- | --- | --- | --- | --- | --- | --- | --- |
| anti-human CD16 antibody clone 3G8 | 0.3 | 0.4 | 0.02 | 0.03 | 54.6 | 0.3 | – | – | – | – | – | – |
| control antibody MOR208 (anti-CD19 human IgG1 Fc enhanced) | – | – | – | – | – | – | 223 | 1750 | 263 | 474 | 351 | 821 |
